Results on 16 molecules are retold here after patent US9657062B2, “Ghrelin analogues” (Zealand Pharma A/S, priority 2012, dated 2017).

*1 amine or outer side, *2 acyl side, *3 side chain or, on linkers, in order; H or OH if unused. Side-chain parts run from the residue outwards. [ ]: non-standard residue; d: D form. The star is where a group is joined. γGlu = O=C(O)[C@H](CCC(=O)[*:2])N[*:1]; Palmitoyl = CCCCCCCCCCCCCCCC(=O)*; Octanoyl = CCCCCCCC(=O)*; Dap = NC[C@H](N)C(=O)O; Octyl = CCCCCCCC*

The chains are these.
B1: H-PS-S(O-octyl)-FLSPEHQRVQRKESKKPPAKLQPR-NH2 (peptide)
peptide: H-PSS(Octyl)FLSPEHQRVQRKESKKPPAKLQPR-NH2
SMILES: CCCCCCCCOC[C@H](NC(=O)[C@H](CO)NC(=O)[C@@H]1CCCN1)C(=O)N[C@@H](Cc1ccccc1)C(=O)N[C@@H](CC(C)C)C(=O)N[C@@H](CO)C(=O)N1CCC[C@H]1C(=O)N[C@@H](CCC(=O)O)C(=O)N[C@@H](Cc1c[nH]cn1)C(=O)N[C@@H](CCC(N)=O)C(=O)N[C@@H](CCCNC(=N)N)C(=O)N[C@H](C(=O)N[C@@H](CCC(N)=O)C(=O)N[C@@H](CCCNC(=N)N)C(=O)N[C@@H](CCCCN)C(=O)N[C@@H](CCC(=O)O)C(=O)N[C@@H](CO)C(=O)N[C@@H](CCCCN)C(=O)N[C@@H](CCCCN)C(=O)N1CCC[C@H]1C(=O)N1CCC[C@H]1C(=O)N[C@@H](C)C(=O)N[C@@H](CCCCN)C(=O)N[C@@H](CC(C)C)C(=O)N[C@@H](CCC(N)=O)C(=O)N1CCC[C@H]1C(=O)N[C@@H](CCCNC(=N)N)C(N)=O)C(C)C
B2: H-PS-S(O-octyl)-FLSPEHSRVSSRKESKSPPAKLSPR-NH2 (peptide)
peptide: H-PSS(Octyl)FLSPEHSRVSSRKESKSPPAKLSPR-NH2
SMILES: CCCCCCCCOC[C@H](NC(=O)[C@H](CO)NC(=O)[C@@H]1CCCN1)C(=O)N[C@@H](Cc1ccccc1)C(=O)N[C@@H](CC(C)C)C(=O)N[C@@H](CO)C(=O)N1CCC[C@H]1C(=O)N[C@@H](CCC(=O)O)C(=O)N[C@@H](Cc1c[nH]cn1)C(=O)N[C@@H](CO)C(=O)N[C@@H](CCCNC(=N)N)C(=O)N[C@H](C(=O)N[C@@H](CO)C(=O)N[C@@H](CO)C(=O)N[C@@H](CCCNC(=N)N)C(=O)N[C@@H](CCCCN)C(=O)N[C@@H](CCC(=O)O)C(=O)N[C@@H](CO)C(=O)N[C@@H](CCCCN)C(=O)N[C@@H](CO)C(=O)N1CCC[C@H]1C(=O)N1CCC[C@H]1C(=O)N[C@@H](C)C(=O)N[C@@H](CCCCN)C(=O)N[C@@H](CC(C)C)C(=O)N[C@@H](CO)C(=O)N1CCC[C@H]1C(=O)N[C@@H](CCCNC(=N)N)C(N)=O)C(C)C
B3: H-PS-Dap(N-octanoyl)-FLSPEHSRVSSRKES-K(hexadecanoyl-isoGlu)-KPPA-NH2 (peptide)
peptide: H-PS[Dap](Octanoyl)FLSPEHSRVSSRKESK([γGlu-Palmitoyl])KPPA-NH2
SMILES: CCCCCCCCCCCCCCCC(=O)N[C@@H](CCC(=O)NCCCC[C@H](NC(=O)[C@H](CO)NC(=O)[C@H](CCC(=O)O)NC(=O)[C@H](CCCCN)NC(=O)[C@H](CCCNC(=N)N)NC(=O)[C@H](CO)NC(=O)[C@H](CO)NC(=O)[C@@H](NC(=O)[C@H](CCCNC(=N)N)NC(=O)[C@H](CO)NC(=O)[C@H](Cc1c[nH]cn1)NC(=O)[C@H](CCC(=O)O)NC(=O)[C@@H]1CCCN1C(=O)[C@H](CO)NC(=O)[C@H](CC(C)C)NC(=O)[C@H](Cc1ccccc1)NC(=O)[C@H](CNC(=O)CCCCCCC)NC(=O)[C@H](CO)NC(=O)[C@@H]1CCCN1)C(C)C)C(=O)N[C@@H](CCCCN)C(=O)N1CCC[C@H]1C(=O)N1CCC[C@H]1C(=O)N[C@@H](C)C(N)=O)C(=O)O
B4: H-PS-S(O-octyl)-FLSPEHQRVQQRKES-K(hexadecanoyl-isoGlu)-KPPAKLQPR-NH2 (peptide)
peptide: H-PSS(Octyl)FLSPEHQRVQQRKESK([γGlu-Palmitoyl])KPPAKLQPR-NH2
SMILES: CCCCCCCCCCCCCCCC(=O)N[C@@H](CCC(=O)NCCCC[C@H](NC(=O)[C@H](CO)NC(=O)[C@H](CCC(=O)O)NC(=O)[C@H](CCCCN)NC(=O)[C@H](CCCNC(=N)N)NC(=O)[C@H](CCC(N)=O)NC(=O)[C@H](CCC(N)=O)NC(=O)[C@@H](NC(=O)[C@H](CCCNC(=N)N)NC(=O)[C@H](CCC(N)=O)NC(=O)[C@H](Cc1c[nH]cn1)NC(=O)[C@H](CCC(=O)O)NC(=O)[C@@H]1CCCN1C(=O)[C@H](CO)NC(=O)[C@H](CC(C)C)NC(=O)[C@H](Cc1ccccc1)NC(=O)[C@H](COCCCCCCCC)NC(=O)[C@H](CO)NC(=O)[C@@H]1CCCN1)C(C)C)C(=O)N[C@@H](CCCCN)C(=O)N1CCC[C@H]1C(=O)N1CCC[C@H]1C(=O)N[C@@H](C)C(=O)N[C@@H](CCCCN)C(=O)N[C@@H](CC(C)C)C(=O)N[C@@H](CCC(N)=O)C(=O)N1CCC[C@H]1C(=O)N[C@@H](CCCNC(=N)N)C(N)=O)C(=O)O
B5: H-PS-S(O-octyl)-FLSPEHSRVSSRPESSSPPAKLSPR-NH2 (peptide)
peptide: H-PSS(Octyl)FLSPEHSRVSSRPESSSPPAKLSPR-NH2
SMILES: CCCCCCCCOC[C@H](NC(=O)[C@H](CO)NC(=O)[C@@H]1CCCN1)C(=O)N[C@@H](Cc1ccccc1)C(=O)N[C@@H](CC(C)C)C(=O)N[C@@H](CO)C(=O)N1CCC[C@H]1C(=O)N[C@@H](CCC(=O)O)C(=O)N[C@@H](Cc1c[nH]cn1)C(=O)N[C@@H](CO)C(=O)N[C@@H](CCCNC(=N)N)C(=O)N[C@H](C(=O)N[C@@H](CO)C(=O)N[C@@H](CO)C(=O)N[C@@H](CCCNC(=N)N)C(=O)N1CCC[C@H]1C(=O)N[C@@H](CCC(=O)O)C(=O)N[C@@H](CO)C(=O)N[C@@H](CO)C(=O)N[C@@H](CO)C(=O)N1CCC[C@H]1C(=O)N1CCC[C@H]1C(=O)N[C@@H](C)C(=O)N[C@@H](CCCCN)C(=O)N[C@@H](CC(C)C)C(=O)N[C@@H](CO)C(=O)N1CCC[C@H]1C(=O)N[C@@H](CCCNC(=N)N)C(N)=O)C(C)C
B6: Ac-Orn-S(O-octyl)-FLSPEHQRVQQRKESKKPPAKLQPR-NH2 (peptide)
peptide: RSFLSPEHQRVQQRKESKKPPAKLQPR
modifications: N-terminal Ac-Orn (acetylated ornithine, stands for X1 and X2 together); next residue Ser(O-octyl) (position 3 of the formula); C-terminal amide (-NH2)
B7: H-PS-S(O-octyl)-FLSPK-NH2 (peptide)
peptide: H-PSS(Octyl)FLSPK-NH2
SMILES: CCCCCCCCOC[C@H](NC(=O)[C@H](CO)NC(=O)[C@@H]1CCCN1)C(=O)N[C@@H](Cc1ccccc1)C(=O)N[C@@H](CC(C)C)C(=O)N[C@@H](CO)C(=O)N1CCC[C@H]1C(=O)N[C@@H](CCCCN)C(N)=O
B8: H-PS-Dap(N-octanoyl)-FLSPY-NH2 (peptide)
peptide: H-PS[Dap](Octanoyl)FLSPY-NH2
SMILES: CCCCCCCC(=O)NC[C@H](NC(=O)[C@H](CO)NC(=O)[C@@H]1CCCN1)C(=O)N[C@@H](Cc1ccccc1)C(=O)N[C@@H](CC(C)C)C(=O)N[C@@H](CO)C(=O)N1CCC[C@H]1C(=O)N[C@@H](Cc1ccc(O)cc1)C(N)=O
B9: H-PS-Dap(N-octanoyl)-FLSPK-NH2 (peptide)
peptide: H-PS[Dap](Octanoyl)FLSPK-NH2
SMILES: CCCCCCCC(=O)NC[C@H](NC(=O)[C@H](CO)NC(=O)[C@@H]1CCCN1)C(=O)N[C@@H](Cc1ccccc1)C(=O)N[C@@H](CC(C)C)C(=O)N[C@@H](CO)C(=O)N1CCC[C@H]1C(=O)N[C@@H](CCCCN)C(N)=O
B10: H-PS-S(O-octyl)-FLSPEHSRVSSRKESSSPPAKLSPR-NH2 (peptide)
peptide: H-PSS(Octyl)FLSPEHSRVSSRKESSSPPAKLSPR-NH2
SMILES: CCCCCCCCOC[C@H](NC(=O)[C@H](CO)NC(=O)[C@@H]1CCCN1)C(=O)N[C@@H](Cc1ccccc1)C(=O)N[C@@H](CC(C)C)C(=O)N[C@@H](CO)C(=O)N1CCC[C@H]1C(=O)N[C@@H](CCC(=O)O)C(=O)N[C@@H](Cc1c[nH]cn1)C(=O)N[C@@H](CO)C(=O)N[C@@H](CCCNC(=N)N)C(=O)N[C@H](C(=O)N[C@@H](CO)C(=O)N[C@@H](CO)C(=O)N[C@@H](CCCNC(=N)N)C(=O)N[C@@H](CCCCN)C(=O)N[C@@H](CCC(=O)O)C(=O)N[C@@H](CO)C(=O)N[C@@H](CO)C(=O)N[C@@H](CO)C(=O)N1CCC[C@H]1C(=O)N1CCC[C@H]1C(=O)N[C@@H](C)C(=O)N[C@@H](CCCCN)C(=O)N[C@@H](CC(C)C)C(=O)N[C@@H](CO)C(=O)N1CCC[C@H]1C(=O)N[C@@H](CCCNC(=N)N)C(N)=O)C(C)C
B11: H-PS-S(O-octyl)-FLSPEHSRVSSRKESSKPPAKLSPR-NH2 (peptide)
peptide: H-PSS(Octyl)FLSPEHSRVSSRKESSKPPAKLSPR-NH2
SMILES: CCCCCCCCOC[C@H](NC(=O)[C@H](CO)NC(=O)[C@@H]1CCCN1)C(=O)N[C@@H](Cc1ccccc1)C(=O)N[C@@H](CC(C)C)C(=O)N[C@@H](CO)C(=O)N1CCC[C@H]1C(=O)N[C@@H](CCC(=O)O)C(=O)N[C@@H](Cc1c[nH]cn1)C(=O)N[C@@H](CO)C(=O)N[C@@H](CCCNC(=N)N)C(=O)N[C@H](C(=O)N[C@@H](CO)C(=O)N[C@@H](CO)C(=O)N[C@@H](CCCNC(=N)N)C(=O)N[C@@H](CCCCN)C(=O)N[C@@H](CCC(=O)O)C(=O)N[C@@H](CO)C(=O)N[C@@H](CO)C(=O)N[C@@H](CCCCN)C(=O)N1CCC[C@H]1C(=O)N1CCC[C@H]1C(=O)N[C@@H](C)C(=O)N[C@@H](CCCCN)C(=O)N[C@@H](CC(C)C)C(=O)N[C@@H](CO)C(=O)N1CCC[C@H]1C(=O)N[C@@H](CCCNC(=N)N)C(N)=O)C(C)C
B12: H-Orn-S(O-octyl)-FLSPEHQRVQQRKESKKPPAKLQPR-NH2 (peptide)
peptide: RSFLSPEHQRVQQRKESKKPPAKLQPR
modifications: N-terminal Orn (ornithine, stands for X1 and X2 together); next residue Ser(O-octyl) (position 3 of the formula); C-terminal amide (-NH2)
B13: H-PS-S(O-octyl)-FLSPEHSRPSSR-NH2 (peptide)
peptide: H-PSS(Octyl)FLSPEHSRPSSR-NH2
SMILES: CCCCCCCCOC[C@H](NC(=O)[C@H](CO)NC(=O)[C@@H]1CCCN1)C(=O)N[C@@H](Cc1ccccc1)C(=O)N[C@@H](CC(C)C)C(=O)N[C@@H](CO)C(=O)N1CCC[C@H]1C(=O)N[C@@H](CCC(=O)O)C(=O)N[C@@H](Cc1c[nH]cn1)C(=O)N[C@@H](CO)C(=O)N[C@@H](CCCNC(=N)N)C(=O)N1CCC[C@H]1C(=O)N[C@@H](CO)C(=O)N[C@@H](CO)C(=O)N[C@@H](CCCNC(=N)N)C(N)=O

human growth hormone secretagogue receptor type 1a, sequence (Q92847 whole entry): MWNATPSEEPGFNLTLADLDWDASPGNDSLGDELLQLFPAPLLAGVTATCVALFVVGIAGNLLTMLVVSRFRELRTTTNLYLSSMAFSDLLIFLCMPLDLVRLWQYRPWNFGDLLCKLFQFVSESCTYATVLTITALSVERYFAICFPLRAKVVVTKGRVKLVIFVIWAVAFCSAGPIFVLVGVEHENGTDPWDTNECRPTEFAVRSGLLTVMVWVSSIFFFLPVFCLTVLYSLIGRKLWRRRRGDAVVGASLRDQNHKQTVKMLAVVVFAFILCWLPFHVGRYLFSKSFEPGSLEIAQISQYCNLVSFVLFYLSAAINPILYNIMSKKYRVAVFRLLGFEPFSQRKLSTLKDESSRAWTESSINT

The experiment addresses human growth hormone secretagogue receptor type 1a (human, UniProt Q92847 1-366). Briefly: cell-based or functional assay.
Regarding B1, the “EC50 (nM); Ca2+ induction in HEK293 cells stably expressing the human ghrelin receptor” value (from here on “EC50 (nM); Ca2+ induction”) was 0.33 nM.

As to B2, the “EC50 (nM); Ca2+ induction” value was found to be 0.296 nM. As to B3, the “EC50 (nM); Ca2+ induction” value was 0.566 nM.

Regarding B4, the “EC50 (nM); Ca2+ induction” value came out at 0.496 nM.

As to B5, the “EC50 (nM); Ca2+ induction” value amounted to 0.525 nM.

Regarding H-GSSFLSPEHQKAQQRKESKKPPAKLQPR-OH [rat ghrelin without octanoyl moiety at position 3], the “EC50 (nM); Ca2+ induction” value is more than 1000 nM.

Turning to B6, the “EC50 (nM); Ca2+ induction” value was 1.4 nM. The value for B7 was 0.388 nM; that for B8 was 0.195 nM; that for B9 was 0.364 nM. The value for B10 was 0.454 nM; that for H-PS[Dap](Octanoyl)FLSPEHQRVQRKESKKPPAKLQPR-NH2 [H-PS-Dap(N-octanoyl)-FLSPEHQRVQRKESKKPPAKLQPR-NH2] was 0.253 nM; that for B11 was 0.359 nM. In the case of B12, the “EC50 (nM); Ca2+ induction” value is 0.527 nM.

For B13, the “EC50 (nM); Ca2+ induction” value turned out to be 0.341 nM.

For H-PS[NH‑CH(n-C10H21)‑C(O)]FLSPK-NH2 [H-PS-[NH-CH(n-C10H21)-C(O)]-FLSPK-NH2], the “EC50 (nM); Ca2+ induction” value turned out to be 0.432 nM.
